The target in assay [1] is human FcγRI on cells (monocytes, IFN-γ-treated neutrophils, U937 cells) (human) (UniProt P12314). Description: flow cytometry, FITC antibody on monocytes, average of duplicates. (In general: In flow cytometry, cells or beads pass a laser one at a time.)
Assay [2] has as its target T1, soluble fusion protein consisting of the extracellular domain of human FcγRI and human IgM heavy chain … (human, UniProt P12314 16-292; P01871 106-453).
T1 construct: From supernatant of transiently transfected COS cells, captured on plates with goat anti-human IgM; also called FcRI/IgM fusion protein; FcγRI/IgM heavy chain fusion protein
Description: ELISA on captured sFcγRI-µ, in excess human IgG1 lambda.
Description: The binding of the antibodies to antigen was measured by ELISA. Wells of a microtitre plate (Immunlon 1, Dynatech, Chantilly, Va.) were coated with 200 ng goat anti-human IgM antibodies (Sera-lab, Crawley Down, U.K.) in 100 μl 50 mM carbonate buffer pH 9.6 at 37° C. for at least one hour. Wells were emptied and washed once with PBST and blocked with 1% BSA in PBS at room temperature for thirty minutes. The wells were emptied and washed with PBST and Cos supernatant containing FcRI/IgM fusion protein was added and incubated for one hour at room temperature. Wells were then emptied and washed three times with PBST and test antibodies diluted in 1% BSA/PBS were added and incubated for one hour at room temperature. In addition, each well contained 2 μg human IgGI, lambda antibody (Sigma, Poole, U.K.) The wells were then emptied, washed three times with PBST and 40 ng peroxidase goat anti-human kappa constant region antibodies (Sera-Lab, Crawley Down, U.K.) in 100 μl 1% BSA/PBS added to each well. After incubation for one hour at room temperature, the wells were emptied, washed three time with PBST and 10 μl HPD substrate buffer was added.
The wells of a microtiter plate were coated with goat anti-human IgM antibodies (Sera-Lab, Crawley Down, U.K.) in 50 mM bicarbonate buffer, pH 9.6. […]

human FcγRI on cells (monocytes, IFN-γ-treated neutrophils, U937 cells) (human), sequence (P12314 16-374): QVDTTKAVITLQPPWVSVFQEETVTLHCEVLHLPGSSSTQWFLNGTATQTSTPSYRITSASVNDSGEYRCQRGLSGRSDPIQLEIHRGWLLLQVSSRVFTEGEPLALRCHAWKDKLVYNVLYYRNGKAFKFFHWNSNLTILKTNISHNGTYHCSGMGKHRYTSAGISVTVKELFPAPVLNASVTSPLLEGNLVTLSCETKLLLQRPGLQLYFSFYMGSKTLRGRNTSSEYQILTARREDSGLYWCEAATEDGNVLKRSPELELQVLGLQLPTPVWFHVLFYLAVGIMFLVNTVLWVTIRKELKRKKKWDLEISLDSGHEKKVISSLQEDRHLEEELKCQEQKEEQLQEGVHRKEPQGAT
T1 sequence (P12314 other isoform, or with tags, fused parts or gaps): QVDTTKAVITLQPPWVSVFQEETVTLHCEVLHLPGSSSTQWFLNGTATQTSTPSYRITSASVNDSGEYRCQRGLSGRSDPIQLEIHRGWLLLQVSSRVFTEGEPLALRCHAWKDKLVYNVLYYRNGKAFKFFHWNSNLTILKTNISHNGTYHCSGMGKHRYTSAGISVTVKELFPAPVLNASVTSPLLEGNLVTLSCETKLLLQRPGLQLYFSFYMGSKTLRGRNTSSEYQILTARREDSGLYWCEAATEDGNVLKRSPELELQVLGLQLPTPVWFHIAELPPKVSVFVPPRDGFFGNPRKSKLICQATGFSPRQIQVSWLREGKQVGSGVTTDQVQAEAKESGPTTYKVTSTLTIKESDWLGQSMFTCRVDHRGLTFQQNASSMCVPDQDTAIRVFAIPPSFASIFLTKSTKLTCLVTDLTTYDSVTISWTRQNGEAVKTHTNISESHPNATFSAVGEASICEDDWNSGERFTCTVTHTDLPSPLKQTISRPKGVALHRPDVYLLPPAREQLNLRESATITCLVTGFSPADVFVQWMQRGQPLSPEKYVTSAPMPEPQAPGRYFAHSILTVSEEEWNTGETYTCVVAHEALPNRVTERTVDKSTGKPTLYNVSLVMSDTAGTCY

On to “humanized mAb 22, KOL VH/REI Vκ mAb, designated H22 (antibody)”, for which, in assay [1], the antibody sites per cell (monocytes) (antibody sites per cell) is 10500.

B1: humanized NEWM VH/REI Vκ mAb (antibody, human IgG1, V domains shown)
VH: QVQLQESGPGLVRPSQTLSLTCTVSGFIFSDNYMYWVRQPPGRGLEWIGTISDGGSYTYYPDSVKGRVTMLRDTSKNQFSLRLSSVTAADTAVYYCARGYYRYEGAMDYWGQGSLVTVSS
VL: DIQLTQSPSSLSASVGDRVTITCKSSQSVLYSSNQKNYLAWYQQKPGKAPKLLIYWASTRESGVPSRFSGSGSGTDFTFTISSLQPEDIATYYCHQYLSSWTFGQGTKVEIK
notes: Human IgG1 and human kappa constant regions; also called NEWM/REI based antibody; NMVK/HuVK
Regarding B1, the “fold lower affinity than the chimeric mAb” value in assay [2] is around 5 fold.

The values above are taken from patent publication US20030144483A1 (Bristol-Myers Squibb, published 2003).
